B1: SLX4BTB wild type, yeast two-hybrid fusion [human] / itself (parent complex)
chain: QDKHPDRGGRTLLSLGLLVADFGAMVNNPHLSDVQFQTDSGEVLYAHKFVLYARCPLLIQYVNNEGFSAVEDGVLTQRVLLGDVSTEAARTFLHYLYTADTGLPPGLSSELSSLAHRFGVSELVHLCEQVPIATDS

Variants of: B1
Test: yeast two-hybrid β-galactosidase assay; ONPG as substrate; SLX4BTB-F708R-AD + SLX4BTB-F708R-BD; parent: 710; read off a plot

response | Variant
~3 OD420 reading | chain 1 F49R

Variants of: B1
Test: yeast two-hybrid β-galactosidase assay; ONPG as substrate; SLX4BTB-F681R-F708R-AD + SLX4BTB-F681R-F708R-BD; parent: 710; read off a plot

response | Variant
~2.5 OD420 reading | chain 1 F22R, chain 1 F49R

— publication PMC4889959 (Nucleic Acids Research, 2016)
